Conditions in all cases: protein: recombinant; tags: none (His6-SUMO removed by ULP-1); unlabeled; chain copies: 2; label: Cy3B (5' positive strand); CF660R (5' negative strand); blunt
Data set [1] concerns the target T1, hMITF-WT (Homo sapiens, UniProt O75030-9 1-419). As to the kind of experiment: FCS; 300 mM KCl; Single-molecule: 0.5 nM DNA, 10 mM Tris pH 7.4, 0.1 mM EDTA, 165 or 300 mM KCl, 1 mM MgCl2, 143 mM 2-ME, 0.01% Tween-20, 0.1 mg/mL BSA. EMSA: 10 mM Hepes pH 7.9, 50 mM NaCl, 5 mM MgCl2, 0.1 mM EDTA, 2 mM DTT, 5% ethylene glycol, 5% glycerol, BSA, 30 min on ice.
For data set [2], the target named is T2, hMITF-sl (Homo sapiens, UniProt O75030-10 1-309). The description is as above.
The target in data set [3] is T3, hMITF-sp (Homo sapiens, UniProt O75030-10 1-413). The data set is described as above.
The target in data set [4] is T1, hMITF-WT. As to the kind of experiment: smFRET; 300 mM KCl; Single-molecule: 0.5 nM DNA, 10 mM Tris pH 7.4, 0.1 mM EDTA, 165 or 300 mM KCl, 1 mM MgCl2, 143 mM 2-ME, 0.01% Tween-20, 0.1 mg/mL BSA. EMSA: 10 mM Hepes pH 7.9, 50 mM NaCl, 5 mM MgCl2, 0.1 mM EDTA, 2 mM DTT, 5% ethylene glycol, 5% glycerol, BSA, 30 min on ice.
Data set [5] addresses T2, hMITF-sl. The data set is described as above.
Data set [6] addresses T3, hMITF-sp. Described as above.
Data set [7] concerns the target T1, hMITF-WT. As to the kind of experiment: single-molecule fluorescence anisotropy; 300 mM KCl; Single-molecule: 0.5 nM DNA, 10 mM Tris pH 7.4, 0.1 mM EDTA, 165 or 300 mM KCl, 1 mM MgCl2, 143 mM 2-ME, 0.01% Tween-20, 0.1 mg/mL BSA. EMSA: 10 mM Hepes pH 7.9, 50 mM NaCl, 5 mM MgCl2, 0.1 mM EDTA, 2 mM DTT, 5% ethylene glycol, 5% glycerol, BSA, 30 min on ice.
Data set [8] concerns the target T2, hMITF-sl. The data set is described as above.
For data set [9], the target named is T3, hMITF-sp. Described as above.

T1 sequence (O75030 other isoform, or with tags, fused parts or gaps): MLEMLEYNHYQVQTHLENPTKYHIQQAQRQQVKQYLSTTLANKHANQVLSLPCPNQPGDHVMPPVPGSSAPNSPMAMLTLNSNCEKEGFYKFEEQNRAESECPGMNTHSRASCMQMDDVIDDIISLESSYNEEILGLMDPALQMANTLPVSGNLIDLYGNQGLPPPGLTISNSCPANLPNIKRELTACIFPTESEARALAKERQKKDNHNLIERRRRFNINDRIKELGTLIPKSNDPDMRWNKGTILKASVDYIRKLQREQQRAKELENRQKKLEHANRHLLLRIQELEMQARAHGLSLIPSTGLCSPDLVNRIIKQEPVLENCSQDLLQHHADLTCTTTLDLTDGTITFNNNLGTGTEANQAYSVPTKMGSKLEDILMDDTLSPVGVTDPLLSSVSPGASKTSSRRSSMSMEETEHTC
T2 sequence (O75030 other isoform, or with tags, fused parts or gaps): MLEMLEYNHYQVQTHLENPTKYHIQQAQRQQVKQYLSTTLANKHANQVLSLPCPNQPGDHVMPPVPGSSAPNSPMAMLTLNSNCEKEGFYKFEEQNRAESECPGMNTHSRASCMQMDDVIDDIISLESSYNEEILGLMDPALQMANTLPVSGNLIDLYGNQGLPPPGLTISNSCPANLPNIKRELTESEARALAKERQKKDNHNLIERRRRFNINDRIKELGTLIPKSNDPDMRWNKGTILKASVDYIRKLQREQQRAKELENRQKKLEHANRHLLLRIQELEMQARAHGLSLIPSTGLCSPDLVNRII
T3 sequence (O75030 other isoform, or with tags, fused parts or gaps): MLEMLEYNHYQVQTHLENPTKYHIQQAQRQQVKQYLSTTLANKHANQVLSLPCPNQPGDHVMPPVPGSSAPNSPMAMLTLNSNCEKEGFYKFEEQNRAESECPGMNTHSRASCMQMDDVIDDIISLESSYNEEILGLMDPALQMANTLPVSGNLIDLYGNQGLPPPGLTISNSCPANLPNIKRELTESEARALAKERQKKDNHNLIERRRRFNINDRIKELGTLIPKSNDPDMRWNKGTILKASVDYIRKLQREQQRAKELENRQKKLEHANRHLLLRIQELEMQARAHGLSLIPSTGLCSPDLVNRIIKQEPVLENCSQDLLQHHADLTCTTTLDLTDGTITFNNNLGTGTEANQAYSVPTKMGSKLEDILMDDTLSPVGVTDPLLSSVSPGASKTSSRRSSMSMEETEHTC

B1: M-box smFRET probe (dsDNA)
DNA 1: GAGATCATGTGTTGA
DNA 2: TCAACACATGATCTC
modifications: 5' C6-amino linker on both strands
With B1, the Kd with hMITF-WT [1] stood at 4.5 ± 1.4 nM; in the data set with hMITF-sl [2], 3.1 ± 1.6 nM; in the data set with hMITF-sp [3], 5.8 ± 3.5 nM; in the data set with hMITF-WT [4], 1.6 ± 1.4 nM; in the data set with hMITF-sl [5] it was 1.6 ± 0.5 nM; with hMITF-sp [6], 1.7 ± 0.9 nM. The results for the Kd with hMITF-WT [7], with hMITF-sl [8] and with hMITF-sp [9] were 1.9 ± 0.6 nM, 0.9 ± 0.4 nM and 1 ± 0.4 nM, respectively.

Values taken from article PMC11467436, “Novel mechanisms of MITF regulation identified in a mouse suppressor screen”.
